Results reported in patent US20080058636A1, “METHODS OF MYOCARDIAL IMAGING” (Epix Pharmaceuticals, Inc., priority 2005, published 2008).
Bridge positions count the residues as written; N and C are the ends. GdDTPA‑thiourea = GdT is GdDTPA-thiourea (Gd-DTPA chelate attached through a thiourea)

B1: Compound ID 845 (peptide)
chain: DWTCSGDEYRWHCNYE
B2: Compound ID 822 (peptide)
chain: DWTCRGDEYTWHCNYE
B3: Compound ID 880 (peptide)
chain: GQWHCTTRFPSHYCLYG
B4: Compound ID 859 (peptide)
chain: GQWHCTTRYPHHYCLYG
B5: Compound ID 900 (peptide)
chain: GQWHCTRRFPHHYCLYG
B6: Compound ID 838 (peptide)
chain: GQWTCSGDAYTWHCNYE
B7: Compound ID 821 (peptide)
chain: DWTCSRDEYTWHCNYE
B8: Compound ID 895 (peptide)
chain: GQWHCTTDYPHHYCLYG
B9: Compound ID 905 (peptide)
chain: GQWHCTTRFPHHTCLYG
B10: Compound ID 857 (peptide)
chain: GAWHCTTRFPHHYCLYG
B11: Compound ID 835 (peptide)
chain: DWTCSADEYTWHCNYE
B12: Compound ID 815 (peptide)
chain: GQWHCTTRFPHHYCKYG
B13: Compound ID 830 (peptide)
chain: GAWTCSGDEYTWHCNYE
B14: Compound ID 820 (peptide)
chain: GQWTCSGDAYTWHCAYE
B15: Compound ID 802 (peptide)
chain: KKWHCYTYFPHHYCLYG
B16: Compound ID 902 (peptide)
chain: GQWHCTTRFPHHRCLYG
B17: Compound ID 876 (peptide)
chain: GQWACTTRFPHHYCLYG
B18: Compound ID 897 (peptide)
chain: GQWHCTNRFPHHYCLYG
B19: Compound ID 840 (peptide)
chain: GQWACSGDEYTWHCNYE
B20: Compound ID 898 (peptide)
chain: GQWHCTSRFPHHYCLYG
B21: Compound ID 870 (peptide)
chain: GQWSCTTRFPHHYCLYG
B22: Compound ID 853 (peptide)
chain: GQWHCTTAFPHHYCLYG
B23: Compound ID 829 (peptide)
chain: DWTCSYDEYTWHCNYE
B24: Compound ID 842 (peptide)
chain: DWTCSGDEYTWYCNYE
B25: Compound ID 807 (peptide)
peptide: {GdDTPA‑thiourea}-GQWHCTTRFPHHYCLYGK(GdDTPA‑thiourea)-NH2
modifications: disulfide 5-14
B26: Compound ID 826 (peptide)
chain: GQWTCYGDEYTWYCNYE
B27: Compound ID 832 (peptide)
chain: GQWTCSGDEYAWHCNYE
B28: Compound ID 823 (peptide)
chain: GQWTCSGDEYTWHCNY
B29: Compound ID 854 (peptide)
chain: PPQWHCTTRFPHHYCLYG
B30: Compound ID 824 (peptide)
chain: PWTCSGDEYAWHCNYE
B31: Compound ID 847 (peptide)
chain: DWTCSLDEYTWHCNYE
B32: Compound ID 877 (peptide)
chain: GQWHCATRFPHHYCLYG
B33: Compound ID 878 (peptide)
chain: GQWHCTTRFPHAYCLYG
B34: Compound ID 865 (peptide)
chain: GQWHCTTRFPAHYCLYG
B35: Compound ID 890 (peptide)
chain: GQWHCTTDFPHHYCLFG
B36: Compound ID 836 (peptide)
chain: DWTCSSDEYTWHCNYE
B37: Compound ID 899 (peptide)
chain: GQWHCTYRFPHHYCLYG
B38: Compound ID 833 (peptide)
chain: GQWTCSGDEYTWACNYE
B39: Compound ID 841 (peptide)
chain: GQWTCSGDEYTWHCNYA
B40: Compound ID 839 (peptide)
chain: GQWTCSGDEYTWHCAYE
B41: Compound ID 855 (peptide)
chain: GQWHCTTRFPHHYCAYG
B42: Compound ID 834 (peptide)
chain: DWTCSGDEYYWHCNYE

target: human collagen type I (acid soluble, extracted from placenta, Sigma C7774) (human) (UniProt P02452); assay: dried collagen assay, 5 uM each
Sequence (P02452 162-1218 limits assumed, chain 1 of 2): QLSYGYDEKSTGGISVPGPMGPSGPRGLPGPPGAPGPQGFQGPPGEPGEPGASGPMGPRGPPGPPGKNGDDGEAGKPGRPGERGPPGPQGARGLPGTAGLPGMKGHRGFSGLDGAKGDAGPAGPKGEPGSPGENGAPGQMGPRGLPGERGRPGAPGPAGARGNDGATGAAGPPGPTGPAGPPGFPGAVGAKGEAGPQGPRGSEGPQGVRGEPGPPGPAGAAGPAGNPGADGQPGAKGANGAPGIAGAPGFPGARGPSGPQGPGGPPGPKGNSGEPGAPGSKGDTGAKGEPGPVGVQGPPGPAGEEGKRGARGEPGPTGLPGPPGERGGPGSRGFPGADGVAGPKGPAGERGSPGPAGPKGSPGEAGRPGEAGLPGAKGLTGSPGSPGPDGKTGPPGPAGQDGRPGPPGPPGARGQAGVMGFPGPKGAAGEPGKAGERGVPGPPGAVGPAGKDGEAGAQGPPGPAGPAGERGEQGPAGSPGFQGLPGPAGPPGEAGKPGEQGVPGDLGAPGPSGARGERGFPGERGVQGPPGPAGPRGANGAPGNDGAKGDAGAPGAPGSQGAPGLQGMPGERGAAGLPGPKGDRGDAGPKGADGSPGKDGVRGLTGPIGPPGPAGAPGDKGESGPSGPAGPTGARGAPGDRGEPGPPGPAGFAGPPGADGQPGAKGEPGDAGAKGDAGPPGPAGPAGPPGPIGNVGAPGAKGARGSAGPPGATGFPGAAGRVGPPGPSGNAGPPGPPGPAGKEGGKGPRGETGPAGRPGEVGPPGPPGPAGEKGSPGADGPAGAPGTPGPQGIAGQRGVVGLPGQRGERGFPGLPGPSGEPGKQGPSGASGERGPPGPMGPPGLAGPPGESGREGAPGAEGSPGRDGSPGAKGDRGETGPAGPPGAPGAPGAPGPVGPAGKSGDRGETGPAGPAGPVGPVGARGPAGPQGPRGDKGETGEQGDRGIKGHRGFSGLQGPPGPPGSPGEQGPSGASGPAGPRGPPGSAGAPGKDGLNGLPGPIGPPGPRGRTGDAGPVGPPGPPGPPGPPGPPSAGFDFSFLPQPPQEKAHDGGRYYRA
Sequence (P08123 80-1119 limits assumed, chain 2 of 2, further chain): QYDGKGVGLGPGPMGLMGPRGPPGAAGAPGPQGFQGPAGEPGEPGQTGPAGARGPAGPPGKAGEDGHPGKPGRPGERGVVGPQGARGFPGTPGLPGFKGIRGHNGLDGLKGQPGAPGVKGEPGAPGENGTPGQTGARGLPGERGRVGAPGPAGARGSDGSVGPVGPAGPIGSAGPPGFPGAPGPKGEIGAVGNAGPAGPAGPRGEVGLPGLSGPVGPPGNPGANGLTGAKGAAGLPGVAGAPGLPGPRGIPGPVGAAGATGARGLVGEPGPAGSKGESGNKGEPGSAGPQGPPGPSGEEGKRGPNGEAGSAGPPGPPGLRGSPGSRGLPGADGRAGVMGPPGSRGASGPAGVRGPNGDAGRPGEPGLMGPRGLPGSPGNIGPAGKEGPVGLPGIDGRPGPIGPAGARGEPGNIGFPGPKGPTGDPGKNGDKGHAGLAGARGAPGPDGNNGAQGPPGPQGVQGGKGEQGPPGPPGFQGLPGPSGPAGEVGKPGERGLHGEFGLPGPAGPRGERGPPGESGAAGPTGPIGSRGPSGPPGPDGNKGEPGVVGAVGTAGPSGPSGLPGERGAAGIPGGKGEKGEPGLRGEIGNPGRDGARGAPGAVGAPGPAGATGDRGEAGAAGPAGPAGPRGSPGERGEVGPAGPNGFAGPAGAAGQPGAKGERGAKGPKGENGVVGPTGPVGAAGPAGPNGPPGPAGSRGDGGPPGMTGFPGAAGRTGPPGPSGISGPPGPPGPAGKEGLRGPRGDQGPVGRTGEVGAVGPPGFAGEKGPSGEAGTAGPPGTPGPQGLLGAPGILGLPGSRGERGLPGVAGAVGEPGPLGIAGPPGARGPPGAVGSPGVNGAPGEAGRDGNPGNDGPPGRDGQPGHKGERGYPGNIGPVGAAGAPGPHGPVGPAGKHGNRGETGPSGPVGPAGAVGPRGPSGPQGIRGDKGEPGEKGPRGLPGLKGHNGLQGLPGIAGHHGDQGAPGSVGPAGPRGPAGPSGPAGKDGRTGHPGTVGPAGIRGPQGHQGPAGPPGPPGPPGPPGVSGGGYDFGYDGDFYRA

Row | Binder | Human binding [%]
1 | B1 | 36
2 | B2 | 47
3 | B3 | 30
4 | B4 | 47
5 | B5 | 4
6 | B6 | 70
7 | B7 | 56
8 | B8 | 7
9 | B9 | 6
10 | B10 | 67
11 | B11 | 17
12 | B12 | 66
13 | B13 | 26
14 | B14 | 60
15 | B15 | 57
16 | B16 | 7
17 | B17 | 48
18 | B18 | 4
19 | B19 | 15
20 | B20 | 5
21 | B21 | 30

Row | Binder | Human binding [%]
22 | B22 | 66
23 | B23 | 20
24 | B24 | 23
25 | B25 | 48
26 | B26 | 87
27 | B27 | 12
28 | B28 | 53
29 | B29 | 64
30 | B30 | 12
31 | B31 | 16
32 | B32 | 58
33 | B33 | 8
34 | B34 | 30
35 | B35 | 38
36 | B36 | 13
37 | B37 | 20
38 | B38 | 13
39 | B39 | 51
40 | B40 | 30
41 | B41 | 27
42 | B42 | 22

target: rat collagen (acid soluble, type I, rat tail, Upstate 08-115) (rat) (UniProt P02454); assay: dried collagen assay, 5 uM each
Sequence (P02454 152-1207, chain 1 of 2): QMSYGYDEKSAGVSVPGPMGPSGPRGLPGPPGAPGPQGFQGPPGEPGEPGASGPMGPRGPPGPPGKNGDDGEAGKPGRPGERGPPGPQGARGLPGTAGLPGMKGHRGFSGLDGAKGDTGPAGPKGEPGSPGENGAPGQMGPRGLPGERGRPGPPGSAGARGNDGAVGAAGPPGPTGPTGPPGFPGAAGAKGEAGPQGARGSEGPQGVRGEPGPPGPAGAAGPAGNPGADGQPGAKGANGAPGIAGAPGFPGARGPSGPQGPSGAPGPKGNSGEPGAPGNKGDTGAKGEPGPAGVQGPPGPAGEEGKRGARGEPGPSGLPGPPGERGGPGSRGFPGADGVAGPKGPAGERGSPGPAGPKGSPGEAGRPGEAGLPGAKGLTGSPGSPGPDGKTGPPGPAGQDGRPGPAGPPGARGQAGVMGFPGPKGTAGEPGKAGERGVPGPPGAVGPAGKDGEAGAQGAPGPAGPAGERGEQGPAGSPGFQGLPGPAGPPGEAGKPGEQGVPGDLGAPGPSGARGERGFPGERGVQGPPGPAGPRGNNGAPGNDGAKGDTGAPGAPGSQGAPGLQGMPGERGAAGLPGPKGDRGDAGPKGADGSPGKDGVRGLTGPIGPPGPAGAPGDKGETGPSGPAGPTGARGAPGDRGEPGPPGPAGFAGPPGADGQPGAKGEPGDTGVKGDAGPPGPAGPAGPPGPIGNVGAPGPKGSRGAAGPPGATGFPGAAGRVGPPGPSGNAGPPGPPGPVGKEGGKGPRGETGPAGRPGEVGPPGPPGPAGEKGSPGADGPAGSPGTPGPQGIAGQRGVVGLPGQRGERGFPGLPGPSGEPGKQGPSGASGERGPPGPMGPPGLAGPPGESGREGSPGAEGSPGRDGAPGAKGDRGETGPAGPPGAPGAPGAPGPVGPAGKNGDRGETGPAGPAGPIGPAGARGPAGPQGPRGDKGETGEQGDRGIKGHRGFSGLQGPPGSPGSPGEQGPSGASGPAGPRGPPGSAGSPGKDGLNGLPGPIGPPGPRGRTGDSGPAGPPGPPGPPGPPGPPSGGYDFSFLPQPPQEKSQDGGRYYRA
Sequence (P02466 86-1125, chain 2 of 2, further chain): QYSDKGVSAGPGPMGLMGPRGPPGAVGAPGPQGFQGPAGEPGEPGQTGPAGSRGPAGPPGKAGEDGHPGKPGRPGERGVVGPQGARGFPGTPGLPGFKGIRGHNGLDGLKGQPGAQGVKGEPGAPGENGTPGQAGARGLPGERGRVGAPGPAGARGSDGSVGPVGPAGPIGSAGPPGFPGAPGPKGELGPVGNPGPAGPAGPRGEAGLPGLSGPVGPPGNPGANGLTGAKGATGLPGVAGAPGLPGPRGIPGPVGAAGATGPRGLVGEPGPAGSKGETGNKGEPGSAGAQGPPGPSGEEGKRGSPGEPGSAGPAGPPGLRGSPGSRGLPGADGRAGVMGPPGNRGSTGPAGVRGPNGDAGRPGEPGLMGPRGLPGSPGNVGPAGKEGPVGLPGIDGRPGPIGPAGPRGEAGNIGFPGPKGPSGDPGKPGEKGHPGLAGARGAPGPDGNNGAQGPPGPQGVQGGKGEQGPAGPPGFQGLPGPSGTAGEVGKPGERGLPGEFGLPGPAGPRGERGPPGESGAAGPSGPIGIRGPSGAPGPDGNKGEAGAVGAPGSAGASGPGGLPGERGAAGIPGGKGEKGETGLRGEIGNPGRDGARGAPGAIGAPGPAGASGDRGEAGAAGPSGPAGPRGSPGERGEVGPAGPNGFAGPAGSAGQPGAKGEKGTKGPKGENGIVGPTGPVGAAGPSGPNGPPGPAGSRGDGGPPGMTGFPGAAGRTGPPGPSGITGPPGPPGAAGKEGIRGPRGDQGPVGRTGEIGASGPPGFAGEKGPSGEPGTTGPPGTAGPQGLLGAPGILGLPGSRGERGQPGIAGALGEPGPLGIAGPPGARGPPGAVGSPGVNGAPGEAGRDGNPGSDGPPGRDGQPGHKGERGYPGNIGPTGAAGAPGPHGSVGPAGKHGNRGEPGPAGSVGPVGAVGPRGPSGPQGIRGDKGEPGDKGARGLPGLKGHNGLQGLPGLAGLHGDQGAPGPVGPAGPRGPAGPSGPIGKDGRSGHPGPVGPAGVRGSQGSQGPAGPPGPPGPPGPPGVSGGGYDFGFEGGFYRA

Row | Binder | Rat binding [%]
43 | B1 | 10
44 | B2 | 20
45 | B3 | 0
46 | B4 | 38
47 | B5 | 1
48 | B6 | 61
49 | B7 | 29
50 | B8 | 0
51 | B9 | 2
52 | B10 | 69
53 | B11 | 9
54 | B12 | 59
55 | B13 | 11
56 | B14 | 29
57 | B15 | 45
58 | B16 | 2
59 | B17 | 26
60 | B18 | 1
61 | B19 | 3
62 | B20 | 3
63 | B21 | 28

Row | Binder | Rat binding [%]
64 | B22 | 57
65 | B23 | 21
66 | B24 | 9
67 | B25 | 45
68 | B26 | 71
69 | B27 | 4
70 | B28 | 28
71 | B29 | 56
72 | B30 | 0
73 | B31 | 7
74 | B32 | 41
75 | B33 | 9
76 | B34 | 17
77 | B35 | 15
78 | B36 | 8
79 | B37 | 14
80 | B38 | 4
81 | B39 | 28
82 | B40 | 11
83 | B41 | 15
84 | B42 | 9
